{
  "source": "patent US20240285749A1",
  "target": "HA ectodomain trimer (UniProt Q289M7)",
  "assay": "Octet",
  "note": "pKd: −log10 of the molar value.",
  "data": [
    {"substance": "F10", "values": [
      {"measurement": "pKd", "setting": "scFv", "value": 10.20}
    ]},
    {"substance": "CR6261", "values": [
      {"measurement": "pKd", "setting": "Fab", "value": 9.41}
    ]}
  ]
}
